# Publication PMC5124861, “Transition steps in peroxide reduction and a molecular switch for peroxide robustness of prokaryotic peroxiredoxins” (Scientific Reports, 2016)
# Biological target: the molecule itself
# Test: crystal structure; oxidized EcAhpC_(1-186)-YFSKHN; hanging-drop vapour diffusion, 1.6 M ammonium sulfate, 100 mM MES pH 6.5, 5% dioxane, 4.5 mg/ml protein, 291 K; 2.7 Å; decamer in the asymmetric unit
protein,measurement,value
"chimeric EcAhpC_(1-186)-YFSKHN (enzyme, E. coli | human, C-terminal YFSKHN segment (helix with the YF motif) of human Prx2; Decamer (alpha2)5 in the crystal; In the oxidized form an intermolecular disulphide joins C47 and C166' of the two subunits of each dimer; the reduced form came from soaking oxidized crystals in 1 mM TCEP; The forward primer (NcoI, ATG GCA ATG TCC) may add residues before M1; also called chimeric Prx; Ox; copies: 10) MSLINTKIKPFKNQAFKNGEFIEITEKDTEGRWSVFFFYPADFTFVCPTELGDVADHYEELQKLGVDVYAVSTDTHFTHKAWHSSSETIAKIKYAMIGDPTGALTRNFDNMREDEGLADRATFVVDPQGIIQAIEVTAEGIGRDASDLLRKIKAAQYVASHPGEVCPAKWKEGEATLAPSLDLVGKYFSKHN",stoichiometry N,10
